These results are taken from article PMC2929395.

Substrate in this data set: CC(C)(CO)[C@@H](O)C(=O)NCCC(=O)O
Put plainly: purified protein, by the assay type. The settings on record: pH 7.5, 37.0 °C.

Residue numbers refer to the chain shown, from its start. Numbers in names are those of the source.

B1: PanK3(S195V) (Homo sapiens; S195V) (protein)
chain: MKIKDAKKPSFPWFGMDIGGTLVKLSYFEPIDITAEEEQEEVESLKSIRKYLTSNVAYGSTGIRDVHLELKDLTLFGRRGNLHFIRFPTQDLPTFIQMGRDKNFSTLQTVLCATGGGAYKFEKDFRTIGNLHLHKLDELDCLVKGLLYIDSVSFNGQAECYYFANASEPERCQKMPFNLDDPYPLLVVNIGSGVVILAVHSKDNYKRVTGTSLGGGTFLGLCSLLTGCESFEEALEMASKGDSTQADKLVRDIYGGDYERFGLPGWAVASSFGNMIYKEKRESVSKEDLARATLVTITNNIGSVARMCAVNEKINRVVFVGNFLRVNTLSMKLLAYALDYWSKGQLKALFLEHEGYFGAVGALLGLPNFS
In the case of B1, the Km (other: substrate) was determined as 151 ± 16 µM.

B2: PanK3 (Homo sapiens) (protein)
chain: B1 chain with V195S
With B2, the Km (other: wild-type PanK3, substrate) is reported as 14 ± 0.1 µM.

The term Km denotes the concentration of substrate that gives half-maximal velocity.
